The text below walks through data of patent publication US20120136195A1, “DRUG DELIVERY SYSTEM OF TARGET DRUG AND METHOD OF IMPLEMENTING THE SAME” (priority 2010, published 2012).

This series can be described thus: Impact of ultrasound acoustic pressure on enzyme activity of the drug. The class given is physicochemical. From the text:
In the evaluation of ultrasound power and parameter adjustment, and their impacts on enzyme activity, in order to ascertain whether ultrasound could affect drug activity, thus evaluating correctly the benefit of the present invention, therefore in an experiment, various acoustic pressure are given, and evaluations are made for activity of drug on the magnetic particles after applying various numbers of pulses. […] From the result it can be confirmed that, the present invention is able to cause suspension of magnetic particles, while reducing as much as possible its impact on the drug carried by the magnetic particles.

For “recombinant tissue plasminogen activator [rtPA]”, the “enzyme activity after applying ultrasound” value (acoustic pressure of 7.1 MPa (FIG. 9)) is given as “apparent loss of enzyme activity” and the “enzyme activity after applying ultrasound” value (lower acoustic pressure (below 7.1 MPa, FIG. 9)) was “will not be affected”.
